The supplement of paper PMC10126150
± gives the standard deviation of the averaged measurements.

System: ATP
Test: switch fluorescence ratio, 500 uM ATP over buffer (Cy3 cluster intensity, sum of 5 cycles each) (fold (ratio)); higher = stronger signal-on switching upon ATP binding; sequences stand for … in TCGTCGGCAGCGTCAGATGTGTATAAGAGACAGTTTTTTTTTTTTTTTTTTTTTTTTT…TC
Conditions: aptamer strand: ATP DNA aptamer (quencher-CACCTGGGGGAGTATTGCGGAGGAAGG + anchor), 100 nM annealed; ATP concentration: 500 uM
How it was run: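 Cy3-labelled switching-strand clusters on a modified Illumina MiSeq flow-cell were annealed to 100 nM quencher-labelled ATP aptamer and imaged first in selection buffer, then after 15 min with 500 uM ATP at 22 °C. NaOH stripping and re-annealing separated each of five buffer/ATP cycles, and clusters outside 100-1000 RFU were excluded. The fluorescence ratio sums target-cycle Cy3 intensity over buffer-cycle Cy3 intensity per cluster and averages it per switch-domain sequence.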
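Note: ATP exposure 15 min at 22 °C before imaging.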

| Sequence | switch fluorescence ratio |
| --- | --- |
| GGCGTAAATG | 1.02 ± 0.0066 |
| GGCGTAATAT | 1.54 ± 0.085 |
| GGCGTAGGCC | 1.2 ± 0.29 |
| GGCGTATATG | 0.973 ± 0.027 |
| GGCGTGATGC | 1.091 ± 0.0076 |
| GGCGTGCGTA | 1.01 ± 0.026 |
| GGCGTTCTTG | 0.962 ± 0.015 |
| GGCGTTGGCT | 0.985 ± 0.011 |
| GGCTAACAAG | 1.01 ± 0.02 |
| GGCTAAGAAT | 1.03 ± 0.058 |
| GGCTAAGGGG | 0.992 ± 0.023 |
| GGCTAAGTTT | 0.97 ± 0.02 |
| GGCTAGAATC | 0.986 ± 0.024 |
| GGCTAGGGGA | 1.13 ± 0.21 |
| GGCTATTGGA | 0.971 ± 0.012 |
| GGCTCAATTT | 0.967 ± 0.012 |
| GGCTGAAGAG | 1.02 ± 0.033 |
| GGCTGAGTTA | 1.021 ± 0.0025 |
| GGCTGGGGTA | 0.9884 ± 0.0032 |
| GGCTGGTTGG | 1.01 ± 0.017 |
| GGCTGTTATT | 0.986 ± 0.039 |
| GGCTGTTTGG | 1 ± 0.012 |
| GGCTTAAGTA | 0.9833 ± 0.0084 |
| GGCTTATGGA | 0.98 ± 0.038 |
| GGCTTCCCGG | 1.16 ± 0.002 |

| Sequence | switch fluorescence ratio |
| --- | --- |
| GGCTTCTAAG | 0.994 ± 0.026 |
| GGCTTGAACA | 1.01 ± 0.034 |
| GGCTTGCGGT | 0.9974 ± 0.004 |
| GGCTTTACGG | 1.012 ± 0.0081 |
| GGCTTTGGAT | 0.977 ± 0.018 |
| GGCTTTGGCG | 1.01 ± 0.015 |
| GGCTTTGGGG | 0.975 ± 0.04 |
| GGCTTTTGGG | 1.03 ± 0.088 |
| GGGAAAAAGG | 0.983 ± 0.029 |
| GGGAAAACCA | 1.01 ± 0.0098 |
| GGGAAAATCA | 0.999 ± 0.02 |
| GGGAAAGAAC | 1.15 ± 0.2 |
| GGGAAAGGCA | 1.015 ± 0.0076 |
| GGGAAAGTAT | 0.982 ± 0.032 |
| GGGAAATGTT | 1.06 ± 0.016 |
| GGGAAATTAG | 1 ± 0.026 |
| GGGAAATTGT | 0.997 ± 0.017 |
| GGGAACAGCA | 1.027 ± 0.0047 |
| GGGAACGATC | 1.003 ± 0.0083 |
| GGGAACGGCC | 1.054 ± 0.0036 |
| GGGAACGTTT | 0.993 ± 0.011 |
| GGGAAGCATG | 1.02 ± 0.022 |
| GGGAAGCATT | 0.989 ± 0.023 |
| GGGAAGCGCC | 0.9967 ± 0.0032 |
| GGGAAGGCGG | 1.02 ± 0.027 |

| Sequence | switch fluorescence ratio |
| --- | --- |
| GGGAAGTATG | 1 ± 0.057 |
| GGGAAGTCAA | 1.02 ± 0.032 |
| GGGAAGTCGG | 0.9824 ± 0.0094 |
| GGGAAGTGAG | 1.013 ± 0.006 |
| GGGAATAATA | 0.991 ± 0.023 |
| GGGAATAATG | 1.01 ± 0.0091 |
| GGGAATACGT | 1.03 ± 0.029 |
| GGGAATAGCG | 0.977 ± 0.046 |
| GGGAATCGCT | 0.973 ± 0.023 |
| GGGAATGGGA | 0.997 ± 0.027 |
| GGGAATTGTT | 0.977 ± 0.014 |
| GGGACACGGC | 0.996 ± 0.059 |
| GGGACAGGCG | 0.991 ± 0.095 |
| GGGACCCAAG | 1.02 ± 0.046 |
| GGGACGCGCA | 0.984 ± 0.036 |
| GGGACGGAAA | 1.11 ± 0.16 |
| GGGACGGCGG | 1.004 ± 0.0087 |
| GGGACTATTT | 1.01 ± 0.013 |
| GGGACTGGGG | 1.02 ± 0.061 |
| GGGAGAAAAT | 1.02 ± 0.011 |
| GGGAGAATAG | 0.985 ± 0.036 |
| GGGAGAATTG | 1.01 ± 0.037 |
| GGGAGACGGT | 1.02 ± 0.068 |
| GGGAGAGCA | 0.9821 ± 0.0098 |
| GGGAGAGGTG | 0.989 ± 0.027 |

| Sequence | switch fluorescence ratio |
| --- | --- |
| GGGAGCCAGT | 1.05 ± 0.12 |
| GGGAGCGTTT | 0.981 ± 0.046 |
| GGGAGGAAGC | 0.99 ± 0.0049 |
| GGGAGGAAGG | 0.974 ± 0.028 |
| GGGAGGAATG | 0.989 ± 0.021 |
| GGGAGGACTT | 0.977 ± 0.029 |
| GGGAGGATCG | 0.993 ± 0.069 |
| GGGAGGATTA | 1 ± 0.031 |
| GGGAGGCGAT | 0.975 ± 0.051 |
| GGGAGGCGGT | 1.01 ± 0.019 |
| GGGAGGGTGC | 1.02 ± 0.07 |
| GGGAGTGGGG | 0.989 ± 0.025 |
| GGGAGTGGGT | 0.99 ± 0.024 |
| GGGAGTGTGG | 1.001 ± 0.0062 |
| GGGAGTTGCT | 0.986 ± 0.039 |
| GGGAGTTTCG | 1.06 ± 0.095 |
| GGGATAAAGA | 1.001 ± 0.003 |
| GGGATAAAGG | 0.993 ± 0.035 |
| GGGATAAGAG | 0.973 ± 0.029 |
| GGGATAAGGC | 1.08 ± 0.014 |
| GGGATAAGGT | 0.979 ± 0.03 |
| GGGATAATTG | 0.978 ± 0.024 |
| GGGATACTAG | 1.01 ± 0.02 |
| GGGATACTTT | 1.5 ± 0.73 |
| GGGATAGAGC | 0.965 ± 0.05 |

| Sequence | switch fluorescence ratio |
| --- | --- |
| GGGATAGGGC | 1.04 ± 0.054 |
| GGGATAGGTT | 1.07 ± 0.12 |
| GGGATAGTTT | 1 ± 0.063 |
| GGGATATCGA | 0.975 ± 0.021 |
| GGGATATGAT | 0.9829 ± 0.0029 |
| GGGATCGAGG | 1.01 ± 0.035 |
| GGGATCGTAC | 1.07 ± 0.041 |
| GGGATCGTAT | 0.9856 ± 0.0054 |
| GGGATGGGAC | 1.043 ± 0.0081 |
| GGGATGGTGT | 0.962 ± 0.016 |
| GGGATGGTTA | 0.971 ± 0.056 |
| GGGATGTAAG | 0.966 ± 0.027 |
| GGGATGTTTT | 0.991 ± 0.012 |
| GGGATTACGG | 0.9899 ± 0.0051 |
| GGGATTAGTT | 1.03 ± 0.023 |
| GGGATTATGG | 1.01 ± 0.038 |
| GGGATTCAAC | 1.018 ± 0.0085 |
| GGGATTCCTG | 0.9777 ± 0.0061 |
| GGGATTCTTA | 0.996 ± 0.021 |
| GGGATTTACG | 1.02 ± 0.019 |
| GGGATTTGTT | 0.9888 ± 0.0057 |
| GGGATTTTCT | 1.011 ± 0.0091 |
| GGGATTTTGT | 0.983 ± 0.012 |
| GGGATTTTTT | 1.06 ± 0.16 |
| GGGCAAAGTA | 0.924 ± 0.039 |

| Sequence | switch fluorescence ratio |
| --- | --- |
| GGGCAAGAAG | 1.021 ± 0.0073 |
| GGGCAAGCAT | 0.999 ± 0.037 |
| GGGCAAGGGC | 1.038 ± 0.01 |
| GGGCAATTGA | 1 ± 0.051 |
| GGGCACGAAG | 1 ± 0.013 |
| GGGCACGCTG | 1.033 ± 0.0053 |
| GGGCAGAGGA | 1.0929 ± 0.00017 |
| GGGCATGATG | 1.02 ± 0.055 |
| GGGCATGGGC | 0.9965 ± 0.0015 |
| GGGCATGTAG | 0.996 ± 0.058 |
| GGGCATTGTG | 1.03 ± 0.056 |
| GGGCATTTTG | 0.998 ± 0.015 |
| GGGCATTTTT | 0.9824 ± 0.0041 |
| GGGCCAGTGA | 1.03 ± 0.039 |
| GGGCCATGTA | 1 ± 0.034 |
| GGGCCCCTTG | 1.01 ± 0.073 |
| GGGCCCTAAT | 0.982 ± 0.03 |
| GGGCCGATCA | 0.997 ± 0.036 |
| GGGCCGGGGC | 1.01 ± 0.024 |
| GGGCCGGGGG | 1 ± 0.022 |
| GGGCCGGGTT | 1.01 ± 0.021 |
| GGGCCGTGGG | 0.992 ± 0.017 |
| GGGCCTATAG | 0.9859 ± 0.0085 |
| GGGCCTGGTG | 1.42 ± 0.013 |
| GGGCCTGTGA | 1 ± 0.03 |

| Sequence | switch fluorescence ratio |
| --- | --- |
| GGGCGAAGCG | 0.986 ± 0.035 |
| GGGCGCAACG | 1.05 ± 0.073 |
| GGGCGCGAAC | 1.06 ± 0.018 |
| GGGCGCTTTC | 1.03 ± 0.028 |
| GGGCGGCACG | 0.966 ± 0.054 |
| GGGCGGCCTA | 0.999 ± 0.021 |
| GGGCGGCCTT | 1.03 ± 0.068 |
| GGGCGGGGGG | 1.01 ± 0.03 |
| GGGCGGGGTA | 1.01 ± 0.027 |
| GGGCGGTGTC | 1.01 ± 0.042 |
| GGGCGTTGGG | 0.948 ± 0.059 |
| GGGCGTTTGA | 1 ± 0.046 |
| GGGCTAGGGT | 1.02 ± 0.023 |
| GGGCTATATT | 0.9904 ± 0.0084 |
| GGGCTATTAG | 0.98 ± 0.013 |
| GGGCTCAGAA | 1.03 ± 0.028 |
| GGGCTGGCTG | 0.998 ± 0.062 |
| GGGCTGGGTC | 0.98 ± 0.038 |
| GGGCTTAAAA | 0.98424 ± 0.00098 |
| GGGCTTGTAA | 0.964 ± 0.012 |
| GGGCTTTAAG | 1.03 ± 0.04 |
| GGGCTTTAAT | 0.992 ± 0.015 |
| GGGCTTTCTG | 0.98 ± 0.05 |
| GGGCTTTGGG | 1.008 ± 0.0068 |
| GGGGAAAACG | 0.989 ± 0.015 |

| Sequence | switch fluorescence ratio |
| --- | --- |
| GGGGAAAAGC | 1.04 ± 0.014 |
| GGGGAAACAG | 1 ± 0.018 |
| GGGGAAACGT | 1.12 ± 0.035 |
| GGGGAAATCC | 1.02 ± 0.046 |
| GGGGAAATTT | 1.02 ± 0.028 |
| GGGGAAGAAA | 0.995 ± 0.027 |
| GGGGAAGCGC | 1.01 ± 0.068 |
| GGGGAAGGG | 1.12 ± 0.24 |
| GGGGAAGGGA | 1 ± 0.031 |
| GGGGAAGGGC | 1.02 ± 0.053 |
| GGGGAAGTGC | 1.01 ± 0.055 |
| GGGGAATACA | 1.02 ± 0.017 |
| GGGGAATGGA | 0.982 ± 0.028 |
| GGGGAATTGA | 0.9919 ± 0.0013 |
| GGGGAATTGG | 0.994 ± 0.024 |
| GGGGACAAAT | 1.05 ± 0.0011 |
| GGGGACAGTG | 1.01 ± 0.13 |
| GGGGACCAAT | 1 ± 0.016 |
| GGGGACGGAC | 1.04 ± 0.035 |
| GGGGACTGCG | 1.05 ± 0.023 |
| GGGGACTTAT | 1.02 ± 0.017 |
| GGGGACTTGT | 0.9988 ± 0.0082 |
| GGGGACTTTG | 1.09 ± 0.073 |
| GGGGACTTTT | 0.99 ± 0.026 |
| GGGGAGAATG | 0.9802 ± 0.0069 |
